T1: S. pombe Hop2-Mnd1 complex, purified, His-tagged (S. pombe, UniProt Q9HGK2;Q09739)
T1 sequence 1: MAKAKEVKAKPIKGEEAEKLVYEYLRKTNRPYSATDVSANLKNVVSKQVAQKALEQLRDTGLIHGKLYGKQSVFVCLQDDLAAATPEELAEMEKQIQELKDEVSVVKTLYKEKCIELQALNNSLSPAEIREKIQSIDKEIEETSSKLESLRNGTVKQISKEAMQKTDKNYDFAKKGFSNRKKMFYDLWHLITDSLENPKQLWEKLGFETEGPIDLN
T1 sequence 2: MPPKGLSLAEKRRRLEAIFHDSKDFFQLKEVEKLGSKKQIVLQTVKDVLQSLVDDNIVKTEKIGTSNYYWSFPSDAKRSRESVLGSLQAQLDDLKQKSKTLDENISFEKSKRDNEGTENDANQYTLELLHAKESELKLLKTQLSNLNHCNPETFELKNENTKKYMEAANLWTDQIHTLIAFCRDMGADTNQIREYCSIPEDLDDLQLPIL

T2: S. pombe Hop2 (Meu13), His-tagged, from pET28b, co-expressed and co-purified with Mnd1 (S. pombe, UniProt Q9HGK2 1-216)
T2 sequence: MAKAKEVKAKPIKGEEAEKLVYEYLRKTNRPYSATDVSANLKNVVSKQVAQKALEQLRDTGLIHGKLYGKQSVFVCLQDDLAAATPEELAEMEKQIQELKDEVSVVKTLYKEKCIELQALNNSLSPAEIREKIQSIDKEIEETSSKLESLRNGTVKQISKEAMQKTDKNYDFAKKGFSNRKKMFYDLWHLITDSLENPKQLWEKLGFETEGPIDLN


Experiments:
[1] = target: T1, S. pombe Hop2-Mnd1 complex, purified, …; assay: pull-down
[2] = target: T2, S. pombe Hop2 (Meu13), His-tagged, from …; assay: co-elution in ion-exchange chromatography

binding result [1] | binding result [2] | Binder
binds |  | S. pombe Rad51, purified (natural protein) MADTEVEMQVSAADTNNNENGQAQSNYEYDVNVQDEEDEAAAGPMPLQMLEGNGITASDIKKIHEAGYYTVESIAYTPKRQLLLIKGISEAKADKLLGEASKLVPMGFTTATEYHIRRSELITITTGSKQLDTLLQGGVETGSITELFGEFRTGKSQICHTLAVTCQLPIDMGGGEGKCLYIDTEGTFRPVRLLAVADRYGLNGEEVLDNVAYARAYNADHQLELLQQAANMMSESRFSLLVVDSCTALYRTDFSGRGELSARQMHLARFMRTLQRLADEFGIAVVITNQVVAQVDGISFNPDPKKPIGGNILAHSSTTRLSLRKGRGEQRICKIYDSPCLPESEAIFAINSDGVGDPKEIIAPV
binds |  | S. pombe Dmc1, purified (natural protein) MEEFAEGNDDEQMIFSDIEDLTAHGIGMTDIIKLKQAGVCTVQGVHMSTKRFLLKIKGFSEAKVDKLKEAASKMCPANFSTAMEISQNRKKVWSISTGSEALNGILGGGIQSMSITEVFGEFRCGKTQMSHTLCVTAQLPRDMGGAEGKVAFIDTEGTFRPDRIKAIAERFGVDADQAMENIIVSRAYNSEQQMEYITKLGTIFAEDGQYRLLIVDSIMALFRVDYSGRGELSERQQKLNIMLARLNHISEEFNVAVFVTNQVQADPGAAMMFASNDRKPVGGHVMAHASATRLLLRKGRGEERVAKLNDSPDMPEAECSYVITPGGIADVS
 | binds | S. pombe Mnd1 (Mcp7), His-tagged, from pET16b, co-expressed and co-purified with Hop2 (natural protein) MPPKGLSLAEKRRRLEAIFHDSKDFFQLKEVEKLGSKKQIVLQTVKDVLQSLVDDNIVKTEKIGTSNYYWSFPSDAKRSRESVLGSLQAQLDDLKQKSKTLDENISFEKSKRDNEGTENDANQYTLELLHAKESELKLLKTQLSNLNHCNPETFELKNENTKKYMEAANLWTDQIHTLIAFCRDMGADTNQIREYCSIPEDLDDLQLPIL

Reference: PMC1885673 (Nucleic Acids Research, 2007)
